According to patent publication US20030144182A1 (IMMUNEX, published 2003):

B1: Trimeric human CD40-L (ligand)
chain: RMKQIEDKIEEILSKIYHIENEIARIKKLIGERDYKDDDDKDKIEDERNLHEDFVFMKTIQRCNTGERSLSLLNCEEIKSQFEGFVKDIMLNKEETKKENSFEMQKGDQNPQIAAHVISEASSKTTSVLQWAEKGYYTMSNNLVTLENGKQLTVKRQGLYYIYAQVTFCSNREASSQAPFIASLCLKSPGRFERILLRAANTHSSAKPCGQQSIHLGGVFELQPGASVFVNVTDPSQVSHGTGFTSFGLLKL
notes: also called trimeric CD40-L; CD40-L trimer
B2: Dimeric murine CD40-L (Fc fusion, not shown: a dimerising Fc or GST)
chain (part 1 of 2): DYKDDDDK
chain (part 2 of 2): GGGGSGGGGSGGGGSSSHRRLDKVEEEVNLHEDFVFIKKLKRCNKGEGSLSLLNCEEMRRQFEDLVKDITLNKEEKKENSFEMQRGDEDPQIAAHVVSEANSNAASVLQWAKKGYYTMKSNLVMLENGKQLTVKREGLYYVYTQVTFCSNREPSSQRPFIVGLWLKPSSGSERILLKAANTHSSSQLCEQQSVHLGGVFELQAGASVFVNVTEASQVIHRVGFSSFGLLKL
notes: also called Murine Dimer

How the values were obtained:
[1] = molecular target: T1, CD40/Fc fusion protein (human, UniProt P25942 21-193); assay: biosensor (BIAcore), CD40/Fc captured on goat anti-human IgG1 Fc; equilibrium binding curve, left panel
T1 construct: extracellular domain; also called s CD40/Fc; C40/Fc
T1 sequence (P25942 other isoform, or with tags, fused parts or gaps limits assumed): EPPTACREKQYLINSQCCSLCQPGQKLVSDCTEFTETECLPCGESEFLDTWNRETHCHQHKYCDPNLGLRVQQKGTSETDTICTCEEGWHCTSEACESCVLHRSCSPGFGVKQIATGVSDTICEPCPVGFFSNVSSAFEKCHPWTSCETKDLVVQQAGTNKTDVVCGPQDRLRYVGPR
Experimental: (§1) This example illustrates the binding affinities of several different CD40-L constructs. Affinity experiments were conducted by biospecific interaction analysis (BIA) using a biosensor, an instrument that combines a biological recognition mechanism with a sensing device or transducer. An exemplary biosensor is BIAcore™, from Pharmacia Biosensor AB (Uppsala, Sweden; see Faigerstam L. G., Techniques in Protein Chemistry II, ed. J. J. Villafranca, Acad. Press, NY, 1991). BIAcore™ uses the optical phenomenon surface plasmon resonance (Kretschmann and Raether, Z. Naturforschung, Teil. A 23:2135, 1968) to monitor the interaction of two biological molecules.
(§2) The biosensor chips were coated with goat anti-human IgG₁ Fc, which was used to bind CD40/Fc (prepared as described in Example 1) to the chip. The different constructs of CD40-L were then added at increasing concentrations; the chip was regenerated between the different constructs by the addition of sodium hydroxide. Two separate experiments were performed. […] The resultant data were analyzed to determine the affinity and association rate constants of the different CD40-L constructs. […]

[2] = molecular target: T1, CD40/Fc fusion protein; assay: BIAcore, CD40/Fc captured by goat anti-human IgG1 Fc; first experiment
Experimental: as §1, §2

Row | Binder | EC50 (read off the curve) [1] [nM] | Site 1 (mol/mol CD40/Fc) [2] [mol/mol CD40/Fc] | Site2 (mol/mol CD40/Fc) [2] [mol/mol CD40/Fc]
1 | B1 | ~10 |  | 
2 | B2 |  | 0.05 | 0.14
